This experiment concerns the target GHRH receptor (GHRH-R) of rat insulinoma INS-1 cells (rat) (UniProt Q02644). Nature of the experiment: cell-based or functional assay.

The values that follow come from patent publication US20130195807A1.

Sequence of UniProt Q02644 (Q02644 23-464): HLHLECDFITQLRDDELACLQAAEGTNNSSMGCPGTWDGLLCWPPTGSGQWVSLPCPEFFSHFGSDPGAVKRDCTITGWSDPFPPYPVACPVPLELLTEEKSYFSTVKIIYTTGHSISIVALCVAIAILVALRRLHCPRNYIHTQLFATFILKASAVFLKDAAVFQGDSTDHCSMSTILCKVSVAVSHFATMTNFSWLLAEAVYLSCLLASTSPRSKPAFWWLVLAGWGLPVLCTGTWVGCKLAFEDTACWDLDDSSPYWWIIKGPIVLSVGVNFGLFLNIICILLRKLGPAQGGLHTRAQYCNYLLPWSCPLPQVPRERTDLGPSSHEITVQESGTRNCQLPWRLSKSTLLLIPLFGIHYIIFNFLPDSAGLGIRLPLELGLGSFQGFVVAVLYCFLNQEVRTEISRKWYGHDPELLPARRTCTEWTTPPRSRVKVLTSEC

With “GHRH agonist JI-36, (Dat1, Thr8, Orn12,21, Abu15, Nle27, Asp28, Agm29)hGH-RH(1-29) (peptide)”, the apoptosis of INS-1 cells as indicated by activity of caspases 3 and 7 is 20 % reduction; the cell proliferation of INS-1 cells was found to be 50 % increase.
